Among the data in PMC11068555 are stoichiometry N values, retold here.

By stoichiometry N is commonly meant a count of units in the complex or per binding partner.

What all share (test): native gel or EMSA
Assay [1] deals with Btky72 S Foldon his (sarbecovirus BtKY72 (clade 3) | bacteriophage T4).
Assay [2] has as its target Khosta-2 S Foldon his (prefusion stabilized spike ectodomain) (sarbecovirus Khosta-2 (clade 3) | bacteriophage T4).
Assay [3] deals with PRD-0038 S Foldon his (prefusion stabilized spike ectodomain) (sarbecovirus PRD-0038 (clade 3) | bacteriophage T4).
The target of assay [4] is Pang17 S Foldon his (prefusion stabilized spike ectodomain) (sarbecovirus Pang17 (clade 1b) | bacteriophage T4).
In assay [5] the target is Rf1 S Foldon his (prefusion stabilized spike ectodomain) (sarbecovirus Rf1 (clade 2) | bacteriophage T4).
In assay [6] the target is Rs4081 S Foldon his (prefusion stabilized spike ectodomain) (sarbecovirus Rs4081 (clade 2) | bacteriophage T4).
Assay [7] concerns the target RshSTT200 S Foldon his (prefusion stabilized spike ectodomain) (sarbecovirus RshSTT200 (clade 1b) | bacteriophage T4).
Assay [8] has as its target SARS-CoV S Foldon his (prefusion stabilized spike ectodomain) (SARS-CoV (clade 1a) | bacteriophage T4).

In assay [1], “Btky72 S Foldon his (domain or fragment)” displayed a stoichiometry N of 3.

On to “Khosta-2 S Foldon his (prefusion stabilized spike ectodomain) (domain or fragment)”, for which the stoichiometry N in assay [2] worked out at 3. In assay [3], “PRD-0038 S Foldon his (prefusion stabilized spike ectodomain) (domain or fragment)” displayed a stoichiometry N of 3. “Pang17 S Foldon his (prefusion stabilized spike ectodomain) (domain or fragment)” came in with a stoichiometry N in assay [4] of 3.

“Rf1 S Foldon his (prefusion stabilized spike ectodomain) (domain or fragment)” gave a stoichiometry N in assay [5] of 3.

In assay [6], “Rs4081 S Foldon his (prefusion stabilized spike ectodomain) (domain or fragment)” came in with a stoichiometry N of 3. Take “RshSTT200 S Foldon his (prefusion stabilized spike ectodomain) (domain or fragment)”: the stoichiometry N in assay [7] came to 3. “SARS-CoV S Foldon his (prefusion stabilized spike ectodomain) (domain or fragment)”: in assay [8], the stoichiometry N was 3.
